Values of other authors in PMC2652250.

Target: cardiac troponin I 147-163 (Homo sapiens) (UniProt P19429)
Experiment: NMR

Kd: 154 µM
Substance: cardiac troponin C (cNTnC) N-terminal domain (from UniProt P63316)
